This experiment addresses goat anti-mouse kappa light chain IgG (Southern Biotech). The experiment in a line: phage panning of 1:1 W100/R100 mixture on coated wells, oligonucleotide hybridization of plaque lifts.

In the case of “DB3 R100 VH/κ-gpVIII fusion polypeptide displayed on JC-M13-88 phage (from UniProt P69541 24-73) (scFv)”, the % DB3 R100 variant in DB3 phage eluted, 2 rounds of panning was 82.1% and the % DB3 R100 variant in DB3 phage eluted, 3 rounds of panning was 79.2%.
